From patent US20130157935A1 (ZEALAND PHARMA A S, published 2013)
Starred links: 1 amine or outer side, 2 acyl side, 3 side chain; linkers in the order of their positions; H or OH if unused. Groups on a side chain read outwards from the residue. *: point of attachment. γGlu = O=C(O)[C@H](CCC(=O)[*:2])N[*:1]; Palmitoyl = CCCCCCCCCCCCCCCC(=O)*

Tests used:
[1] = target: human glucagon receptor (Glucagon-R) (human, UniProt P47871 26-477); assay: cell-based or functional assay
[2] = target: human glucagon-like peptide 1 receptor (GLP-1 R) (human, UniProt P43220 24-463); assay: cell-based or functional assay

Sequence of human glucagon receptor (Glucagon-R) (P47871 26-477): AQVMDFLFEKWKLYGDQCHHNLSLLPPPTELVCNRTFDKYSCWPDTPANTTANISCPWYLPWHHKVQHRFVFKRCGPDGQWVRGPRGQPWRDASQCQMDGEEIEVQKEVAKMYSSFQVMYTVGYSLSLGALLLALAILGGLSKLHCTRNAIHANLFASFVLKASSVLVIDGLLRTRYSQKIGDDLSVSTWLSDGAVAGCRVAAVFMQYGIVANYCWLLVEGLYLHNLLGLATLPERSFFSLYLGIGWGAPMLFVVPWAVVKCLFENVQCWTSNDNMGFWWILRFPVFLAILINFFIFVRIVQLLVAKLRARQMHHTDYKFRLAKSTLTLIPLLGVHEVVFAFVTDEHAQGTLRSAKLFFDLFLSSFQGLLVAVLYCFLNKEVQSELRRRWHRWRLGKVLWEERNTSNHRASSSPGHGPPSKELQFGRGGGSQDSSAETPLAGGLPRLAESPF

B1: Compound 4: H-HSQGTFTSDYSKYLDERRAKDFIEWLL-K(Hexadecanoyl-isoGlu)-A-NH2 (peptide)
peptide: HSQGTFTSDYSKYLDERRAKDFIEWLLXA
HELM: PEPTIDE1{H.S.Q.G.T.F.T.S.D.Y.S.K.Y.L.D.E.R.R.A.K.D.F.I.E.W.L.L.K.A.[am]}|PEPTIDE2{[CCCCCCCCCCCCCCCC(=O)[*:2]].[gGlu]}$PEPTIDE1,PEPTIDE2,28:R3-2:R2$$$V2.0
SMILES: CCCCCCCCCCCCCCCC(=O)N[C@@H](CCC(=O)NCCCC[C@H](NC(=O)[C@H](CC(C)C)NC(=O)[C@H](CC(C)C)NC(=O)[C@H](Cc1c[nH]c2ccccc12)NC(=O)[C@H](CCC(=O)O)NC(=O)[C@@H](NC(=O)[C@H](Cc1ccccc1)NC(=O)[C@H](CC(=O)O)NC(=O)[C@H](CCCCN)NC(=O)[C@H](C)NC(=O)[C@H](CCCNC(=N)N)NC(=O)[C@H](CCCNC(=N)N)NC(=O)[C@H](CCC(=O)O)NC(=O)[C@H](CC(=O)O)NC(=O)[C@H](CC(C)C)NC(=O)[C@H](Cc1ccc(O)cc1)NC(=O)[C@H](CCCCN)NC(=O)[C@H](CO)NC(=O)[C@H](Cc1ccc(O)cc1)NC(=O)[C@H](CC(=O)O)NC(=O)[C@H](CO)NC(=O)[C@@H](NC(=O)[C@H](Cc1ccccc1)NC(=O)[C@@H](NC(=O)CNC(=O)[C@H](CCC(N)=O)NC(=O)[C@H](CO)NC(=O)[C@@H](N)Cc1c[nH]cn1)[C@@H](C)O)[C@@H](C)O)[C@@H](C)CC)C(=O)N[C@@H](C)C(N)=O)C(=O)O
GluR EC50 (nM), cAMP formation in HEK293 cells expressing human Glucagon-R [1]: 0.25 nM
GLP-1R EC50 (nM), cAMP formation in HEK293 cells expressing human GLP-1-R [2]: 0.31 nM

B2: Compound 7: H-H-Aib-QGTFTSDYSKYLDE-K(Hexadecanoyl-isoGlu)-RAKDFIEWLLSA-NH2 (peptide)
peptide: HXQGTFTSDYSKYLDEXRAKDFIEWLLSA
HELM: PEPTIDE1{H.[Aib].Q.G.T.F.T.S.D.Y.S.K.Y.L.D.E.K.R.A.K.D.F.I.E.W.L.L.S.A.[am]}|PEPTIDE2{[CCCCCCCCCCCCCCCC(=O)[*:2]].[gGlu]}$PEPTIDE1,PEPTIDE2,17:R3-2:R2$$$V2.0
SMILES: CCCCCCCCCCCCCCCC(=O)N[C@@H](CCC(=O)NCCCC[C@H](NC(=O)[C@H](CCC(=O)O)NC(=O)[C@H](CC(=O)O)NC(=O)[C@H](CC(C)C)NC(=O)[C@H](Cc1ccc(O)cc1)NC(=O)[C@H](CCCCN)NC(=O)[C@H](CO)NC(=O)[C@H](Cc1ccc(O)cc1)NC(=O)[C@H](CC(=O)O)NC(=O)[C@H](CO)NC(=O)[C@@H](NC(=O)[C@H](Cc1ccccc1)NC(=O)[C@@H](NC(=O)CNC(=O)[C@H](CCC(N)=O)NC(=O)C(C)(C)NC(=O)[C@@H](N)Cc1c[nH]cn1)[C@@H](C)O)[C@@H](C)O)C(=O)N[C@@H](CCCNC(=N)N)C(=O)N[C@@H](C)C(=O)N[C@@H](CCCCN)C(=O)N[C@@H](CC(=O)O)C(=O)N[C@@H](Cc1ccccc1)C(=O)N[C@H](C(=O)N[C@@H](CCC(=O)O)C(=O)N[C@@H](Cc1c[nH]c2ccccc12)C(=O)N[C@@H](CC(C)C)C(=O)N[C@@H](CC(C)C)C(=O)N[C@@H](CO)C(=O)N[C@@H](C)C(N)=O)[C@@H](C)CC)C(=O)O
GluR EC50 (nM), cAMP formation in HEK293 cells expressing human Glucagon-R [1]: 0.16 nM
GLP-1R EC50 (nM), cAMP formation in HEK293 cells expressing human GLP-1-R [2]: 0.1 nM

B3: Compound 2: H-HSQGTFTSDYSKYLDERRAKDFIEWL-K(Hexadecanoyl-isoGlu)-SA-NH2 (peptide)
peptide: HSQGTFTSDYSKYLDERRAKDFIEWLXSA
HELM: PEPTIDE1{H.S.Q.G.T.F.T.S.D.Y.S.K.Y.L.D.E.R.R.A.K.D.F.I.E.W.L.K.S.A.[am]}|PEPTIDE2{[CCCCCCCCCCCCCCCC(=O)[*:2]].[gGlu]}$PEPTIDE1,PEPTIDE2,27:R3-2:R2$$$V2.0
SMILES: CCCCCCCCCCCCCCCC(=O)N[C@@H](CCC(=O)NCCCC[C@H](NC(=O)[C@H](CC(C)C)NC(=O)[C@H](Cc1c[nH]c2ccccc12)NC(=O)[C@H](CCC(=O)O)NC(=O)[C@@H](NC(=O)[C@H](Cc1ccccc1)NC(=O)[C@H](CC(=O)O)NC(=O)[C@H](CCCCN)NC(=O)[C@H](C)NC(=O)[C@H](CCCNC(=N)N)NC(=O)[C@H](CCCNC(=N)N)NC(=O)[C@H](CCC(=O)O)NC(=O)[C@H](CC(=O)O)NC(=O)[C@H](CC(C)C)NC(=O)[C@H](Cc1ccc(O)cc1)NC(=O)[C@H](CCCCN)NC(=O)[C@H](CO)NC(=O)[C@H](Cc1ccc(O)cc1)NC(=O)[C@H](CC(=O)O)NC(=O)[C@H](CO)NC(=O)[C@@H](NC(=O)[C@H](Cc1ccccc1)NC(=O)[C@@H](NC(=O)CNC(=O)[C@H](CCC(N)=O)NC(=O)[C@H](CO)NC(=O)[C@@H](N)Cc1c[nH]cn1)[C@@H](C)O)[C@@H](C)O)[C@@H](C)CC)C(=O)N[C@@H](CO)C(=O)N[C@@H](C)C(N)=O)C(=O)O
GluR EC50 (nM), cAMP formation in HEK293 cells expressing human Glucagon-R [1]: 0.81 nM
GLP-1R EC50 (nM), cAMP formation in HEK293 cells expressing human GLP-1-R [2]: 3.09 nM

B4: Compound 5: H-HSQGTFTSDYSKYLD-K(Hexadecanoyl-isoGlu)-RRAKDFIEWLLSA-NH2 (peptide)
peptide: HSQGTFTSDYSKYLDXRRAKDFIEWLLSA
HELM: PEPTIDE1{H.S.Q.G.T.F.T.S.D.Y.S.K.Y.L.D.K.R.R.A.K.D.F.I.E.W.L.L.S.A.[am]}|PEPTIDE2{[CCCCCCCCCCCCCCCC(=O)[*:2]].[gGlu]}$PEPTIDE1,PEPTIDE2,16:R3-2:R2$$$V2.0
SMILES: CCCCCCCCCCCCCCCC(=O)N[C@@H](CCC(=O)NCCCC[C@H](NC(=O)[C@H](CC(=O)O)NC(=O)[C@H](CC(C)C)NC(=O)[C@H](Cc1ccc(O)cc1)NC(=O)[C@H](CCCCN)NC(=O)[C@H](CO)NC(=O)[C@H](Cc1ccc(O)cc1)NC(=O)[C@H](CC(=O)O)NC(=O)[C@H](CO)NC(=O)[C@@H](NC(=O)[C@H](Cc1ccccc1)NC(=O)[C@@H](NC(=O)CNC(=O)[C@H](CCC(N)=O)NC(=O)[C@H](CO)NC(=O)[C@@H](N)Cc1c[nH]cn1)[C@@H](C)O)[C@@H](C)O)C(=O)N[C@@H](CCCNC(=N)N)C(=O)N[C@@H](CCCNC(=N)N)C(=O)N[C@@H](C)C(=O)N[C@@H](CCCCN)C(=O)N[C@@H](CC(=O)O)C(=O)N[C@@H](Cc1ccccc1)C(=O)N[C@H](C(=O)N[C@@H](CCC(=O)O)C(=O)N[C@@H](Cc1c[nH]c2ccccc12)C(=O)N[C@@H](CC(C)C)C(=O)N[C@@H](CC(C)C)C(=O)N[C@@H](CO)C(=O)N[C@@H](C)C(N)=O)[C@@H](C)CC)C(=O)O
GluR EC50 (nM), cAMP formation in HEK293 cells expressing human Glucagon-R [1]: 0.19 nM
GLP-1R EC50 (nM), cAMP formation in HEK293 cells expressing human GLP-1-R [2]: 0.35 nM

H-HSQGTFTSDYSKYLDEK([γGlu-Palmitoyl])RAKDFIEWLLSA-NH2 [Compound 6: H-HSQGTFTSDYSKYLDE-K(Hexadecanoyl-isoGlu)-RAKDFIEWLLSA-NH2]
GLP-1R EC50 (nM), cAMP formation in HEK293 cells expressing human GLP-1-R [2]: 0.13 nM

HSQGTFTSDYSKYLDERRAXDFIEWLLSA (K(Hexadecanoyl-isoGlu) at position 20; C-terminal amide (NH2)) [Compound 3: H-HSQGTFTSDYSKYLDERRA-K(Hexadecanoyl-isoGlu)-DFIEWLLSA-NH2]
GluR EC50 (nM), cAMP formation in HEK293 cells expressing human Glucagon-R [1]: 0.6 nM
GLP-1R EC50 (nM), cAMP formation in HEK293 cells expressing human GLP-1-R [2]: 0.64 nM
